Common to all, as to assay: X-ray crystallography
Data set [1] addresses mZFP568 ZF2-11 (Mus musculus, UniProt E9PYI1 391-665).
Data set [2] deals with mZFP568 ZF1-11 (Mus musculus, UniProt E9PYI1 363-665).
Data set [3] has as its target mZFP568 ZF1-10 (Mus musculus, UniProt E9PYI1 363-637).

mZFP568 ZF2-11, sequence (E9PYI1 391-665): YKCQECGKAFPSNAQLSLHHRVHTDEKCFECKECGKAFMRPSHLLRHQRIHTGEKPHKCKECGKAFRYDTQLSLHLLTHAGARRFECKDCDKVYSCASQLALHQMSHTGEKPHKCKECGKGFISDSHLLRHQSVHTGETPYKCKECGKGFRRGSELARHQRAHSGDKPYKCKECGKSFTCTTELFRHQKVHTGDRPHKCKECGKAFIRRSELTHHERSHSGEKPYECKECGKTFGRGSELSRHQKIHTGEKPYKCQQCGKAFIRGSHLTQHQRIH
mZFP568 ZF1-10, sequence (E9PYI1 363-637): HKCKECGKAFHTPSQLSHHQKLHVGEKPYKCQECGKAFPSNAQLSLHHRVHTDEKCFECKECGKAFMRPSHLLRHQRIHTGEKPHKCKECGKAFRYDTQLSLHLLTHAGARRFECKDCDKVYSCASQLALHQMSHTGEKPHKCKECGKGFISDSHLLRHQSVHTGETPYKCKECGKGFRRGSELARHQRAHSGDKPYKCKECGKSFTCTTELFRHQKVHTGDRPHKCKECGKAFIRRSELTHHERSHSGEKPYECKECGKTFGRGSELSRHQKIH
mZFP568 ZF1-11, sequence (E9PYI1 363-665): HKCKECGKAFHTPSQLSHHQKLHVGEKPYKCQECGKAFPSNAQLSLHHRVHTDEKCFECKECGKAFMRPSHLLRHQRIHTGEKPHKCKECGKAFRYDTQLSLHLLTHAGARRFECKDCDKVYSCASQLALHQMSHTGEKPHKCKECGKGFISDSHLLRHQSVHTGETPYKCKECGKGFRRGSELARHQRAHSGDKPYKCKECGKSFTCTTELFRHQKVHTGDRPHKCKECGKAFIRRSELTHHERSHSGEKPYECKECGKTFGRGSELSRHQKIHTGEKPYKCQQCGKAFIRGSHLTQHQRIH

B1: 28-bp mouse Igf2-P0 crystallization oligo (dsDNA)
DNA 1: TGTGGGCGTGGCACAGGTAAAAAGGGCA
DNA 2: TGCCCTTTTTACCTGTGCCACGCCCACA
In the case of B1, the binding result in data set [1] and in data set [2] was “binds” each time.

B2: 26-bp mouse Igf2-P0 crystallization oligo (dsDNA)
DNA 1: GTGGGCGTGGCACAGGTAAAAAGGGC
DNA 2: GCCCTTTTTACCTGTGCCACGCCCAC
Regarding B2, the binding result in data set [3] is on record as “binds”.

The record behind these values is paper PMC5877318.
